These results are taken from PMC6222199, “Regulatory Targets of the Response Regulator RR_1586 from Clostridioides difficile Identified Using a Bacterial One-Hybrid Screen”.

The target in series [1] is T1, RR_1586 (Clostridioides difficile R20291, UniProt A0A9R0BKD1 1-223). As to the kind of experiment: EMSA; 10 mM Mg2+; EMSA: 5 pmol DNA in 10 ul (500 nM), 10 mM Tris pH 8, 50 mM NaCl, 10 mM MgCl2, room temperature 10 min; 10% PAGE 0.5x TBE on ice, ethidium bromide. As to conditions: protein: recombinant; tags: His6; chain copies: 2; blunt.
The target of series [2] is T1, RR_1586. As to the kind of experiment: EMSA; 10 mM Mg2+; unphosphorylated; EMSA: 5 pmol DNA in 10 ul (500 nM), 10 mM Tris pH 8, 50 mM NaCl, 10 mM MgCl2, room temperature 10 min; 10% PAGE 0.5x TBE on ice, ethidium bromide. The note with it: protein: recombinant; tags: His6; chain copies: 2; blunt.

B1: CDR20291_3121 (pst) site (dsDNA)
DNA 1: CTATATTAGGATTAAGTTAAGCAAGTGT
DNA 2: ACACTTGCTTAACTTAATCCTAATATAG
Take B1: in the series with RR_1586 [1], the binding result is “binds”.

B2: CDR20291_0578 native direct repeat (dsDNA)
DNA 1: ATTTTATTAAGAATGGGTTAAGAGTATAC
DNA 2: GTATACTCTTAACCCATTCTTAATAAAAT
B2: the binding result with RR_1586 [1] is “binds”.

B3: CDR20291_1583 site (dsDNA)
DNA 1: AGGAATTAAGGAGCAATTAAATGATG
DNA 2: CATCATTTAATTGCTCCTTAATTCCT
B3: the binding result with RR_1586 [2] was “binds”.

B4: CDR20291_3145 site (dsDNA)
DNA 1: ATAGTTAAGGTTTAATTAAGATTAAA
DNA 2: TTTAATCTTAATTAAACCTTAACTAT
Consider B4, for which, in the series with RR_1586 [1], the binding result was “binds”.
